Results from patent US20230322857A1, “RECOMBINANTLY ENGINEERED POLYPEPTIDES CAPABLE OF RECYCLING NONCANONICAL COFACTORS” (The Regents of the University of California, priority 2022, published 2023).
Positions count from the first letter of the chain named. Names and notes keep the numbering of the source. “Also recorded” adds a separate entry of the source.

Experiments:
[1] = Steady state kinetics of glutathione reductase (Gor) variants with NADH; type: biochemical; details: for Km: enzyme could not be saturated, 96 mM Tris-Cl pH 7.5, 2.5 mM GSSG
Procedure: (§1) Expression and Purification of Gor Wild-type and Variants. E. coli Gor (EC 1.6.4.2) is a homo-dimeric flavoenzyme containing 450 amino acid residues with 1 FAD per subunit. To prevent interference from endogenous protein, Gor wild-type and variants were expressed using E. coli Δgor::kan strain containing pQElac based plasmids encoding for the Gor wild-type or variants. 1% (v/v) cells from an overnight culture were cultured in 2×YT media with 200 μg/mL ampicillin and 50 μg/mL kanamycin in shake flasks at 37° C. in a rotary shaker to an OD600 of 0.4-0.6. The cultures were then induced with 0.5 mM IPTG and incubated at 30° C. with shaking for 24 h. The cells were harvested with centrifugation and lysed by bead beating with Zymo His Binding Buffer (Zymo Research, CA, USA). Protein purification was performed with Zymo His-Spin Protein miniprep purification kit according to the manufacturer's instructions. The concentrations of purified protein were quantified by Coomassie dye—based assays (Bradford) using BSA (Bovine Serum Albumin) as standards.
(§2) Specific Activity and Steady State Kinetic Analyses for Gor Wild-type and Variants. The specific activity and kinetic parameters of Gor with the different cofactors, shown in FIG. 1, were measured using the following methods. For measuring the specific activity with NMNH, the 100 μL reaction mixture contained 96 mM potassium phosphate buffer pH 7.5, 2.5 mM GSSG and 0.8 mM NMNH. NMNH was generated using methods described in Black et al. (Nat. Chem. Biol. 16:87-94 (2020). Briefly, 4 mM NMN^+ was incubated in a solution containing 50 mM Tris-Cl at pH 8.5, 0.2 mM EDTA, 50 mM Na2HPO4, 5 mM D-glyceraldehyde-3-phosphate, and 28 μM of purified E. coli glyceraldehyde-3-phosphate dehydrogenase. The reaction was incubated at 30° C. for 8 h. The protein was removed by an Amicon Ultra 3 K filter, and the flow-through was dried under vacuum. Assays investigating the steady-state kinetic parameters were completed with 100 μL reaction mixtures containing 96 mM Tris-Cl buffer pH 7.5, 2.5 mM GSSG and varied cofactor concentrations from 0.01 mM to 1.6 mM. The assay was started by addition of 10 μL of purified protein at appropriate concentration at 25° C. The kinetic parameters were measured by monitoring the NAD(P)H consumption at 340 nm in 96-well plate. Data was fit to the Michaelis-Menten equation to generate estimates of apparent catalytic efficiency (kcat/Km). The results are the average of three independent experiments.

[2] = Steady state kinetics of glutathione reductase (Gor) variants with NMNH; type: biochemical; details: for Km: enzyme could not be saturated, 96 mM Tris-Cl pH 7.5, 2.5 mM GSSG
Procedure: as §1, §2

[3] = Specific activity of Gor variants with NMNH; type: biochemical
Procedure: as §1
Specific Activity and Steady State Kinetic Analyses for Gor Wild-type and Variants. The specific activity and kinetic parameters of Gor with the different cofactors, shown in FIG. 1, were measured using the following methods. For measuring the specific activity with NMNH, the 100 μL reaction mixture contained 96 mM potassium phosphate buffer pH 7.5, 2.5 mM GSSG and 0.8 mM NMNH. […] The kinetic parameters were measured by monitoring the NAD(P)H consumption at 340 nm in 96-well plate. […]

[4] = Steady state kinetics of glutathione reductase (Gor) variants with NADPH; type: biochemical
Procedure: as §1
as §2, with “Assays investigating the steady-state kinetic parameters were completed with 100 μL reaction mixtures containing 96 mM Tris-Cl buffer pH 7.5, 2.5 mM GSSG and varied cofactor concentrations from 0.01 mM to 1.6 mM.” left out

E. coli SHuffle strain = test: GDH-Gor coupled growth rescue in SHuffle strain; type: cell-based, Escherichia coli; details: 0.5 mM diamide, varying NMN^+ concentrations
Procedure: Culture conditions for GDH-Gor coupled growth rescue in SHuffle strain. The electro-competent cells of SHuffle harboring pLZ311 or pLZ312 were made as follows: The SHuffle cells were cultured in 200 mL SOB media with spectinomycin at 30° C. with shaking until OD600 reached 0.4-0.6. The culture was chilled on ice for 15 min and the cells were pelleted at 4° C., 4,000×g. Collected cells were washed with 10% glycerol in water (sterile, ice cold) and resuspended with 5 mL of 10% glycerol in water (sterile, ice cold), and stored as 50 μL aliquots at −80° C.
Glucose facilitator (encoded by glf) was used for uptake of unphosphorylated glucose into the cells. The co-transformation of Bs gdh and Zm glf was performed as follows: Thaw SHuffle/pLZ311 or SHuffle/pLZ312 electro-competent cells on ice, add 1 μL Bs gdh (pEK101 or pLZ210) and 1 μL Zm glf(pSM109) plasmid DNA to 50 μL competent cells, mix, and electroporate. Cells were recovered with 1 mL SOC at 37° C. with shaking for 1 h. The cells were added to 10 mL 2×YT with 10 g/L glucose, 0.5% arabinose, kanamycin, chloramphenicol, and ampicillin. After incubation at 37° C. with shaking for 10 h, 1 mL cells were washed 3 times and re-suspended in M9 buffer (1×BD Difco M9 Salts). Targeted dilutions after cells reached density of OD600 0.6 were prepared in M9 buffer and 5 μL aliquots were dispensed in series on an agar plate of M9 selection media containing 0.5 mM diamide, 1 g/L yeast extract, 10 g/L glucose, 0.5% arabinose, 0.5 mM IPTG, ampicillin, kanamycin, chloramphenicol and serial NMN concentrations of 0, 2, 4 and 6 mM. Selection plates were incubated at 37° C., and photos were taken to document growth progress.

[5] = previously identified variant; cited from earlier work
[6] = 96 mM Tris-Cl buffer pH 7.5, 2.5 mM GSSG, varied cofactor concentrations, n = 3

B1: Gor I178T (protein, UniProt P06715 1-450, looked up, variant I178T)
Glutathione reductase: MTKHYDYIAIGGGSGGIASINRAAMYGQKCALIEAKELGGTCVNVGCVPKKVMWHAAQIREAIHMYGPDYGFDTTINKFNWETLIASRTAYIDRIHTSYENVLGKNNVDVIKGFARFVDAKTLEVNGETITADHILIATGGRPSHPDIPGVEYGIDSDGFFALPALPERVAVVGAGYTAVELAGVINGLGAKTHLFVRKHAPLRSFDPMISETLVEVMNAEGPQLHTNAIPKAVVKNTDGSLTLELEDGRSETVDCLIWAIGREPANDNINLEAAGVKTNEKGYIVVDKYQNTNIEGIYAVGDNTGAVELTPVAVAAGRRLSERLFNNKPDEHLDYSNIPTVVFSHPPIGTVGLTEPQAREQYGDDQVKVYKSSFTAMYTAVTTHRQPCRMKLVCVGSEEKIVGIHGIGFGMDEMLQGFAVALKMGATKKDFDNTVAIHPTAAEEFVTMR
**Q.** Which results are given for B1?
**A.** Km [1]: > 1500 µM; Km [2]: > 1500 µM; enhanced NMNH-dependent activity compared to the wild type ([3]; 0.8 mM NMNH, 2.5 mM GSSG, vs wild type Ec Gor): 4 fold; Km [4, 6]: 40 ± 10 µM; NADPH kcat [4, 6]: 31 ± 1 s⁻¹

B2: Gor Ortho: recombinantly engineered E. coli glutathione reductase with I178T, R198M, R204L (SEQ ID NO:8), NMNH-specific (protein)
chain: B1 Glutathione reductase with R198M, R204L
**Q.** Which “growth of SHuffle strain harboring the Gor variant” value (“growth” below) (E. coli SHuffle strain) does the source give for B2 here?
**A.** The value was “supporting growth only with NMN^+ cycling; also recorded: only grows with NMNH regeneration”.

**Q.** What about the Km [1] of the same molecule?
**A.** The Km was greater than 1500 µM.

**Q.** And the “decrease of catalytic efficiency for NADH by the additional R198M-R204L mutations” value ([1]; vs I178T)?
**A.** Its value is roughly 2 fold.

**Q.** And the “cofactor specificity switch from native cofactor NADPH to NMNH” value ([2]; based on catalytic efficiency measured in vitro)?
**A.** Its value is 60,000 fold.

**Q.** And the Km [2]?
**A.** Its Km is greater than 1500 µM.

**Q.** And the “catalytic efficiency (kcat/Km) for NMNH, fold higher than the wild type” value ([2]; vs Ec Gor wild type)?
**A.** Its value is roughly 4 fold.

**Q.** And the “change in NMNH-dependent activity on adding R198M-R204L to Ec Gor I178T” value ([3]; vs Ec Gor I178T)?
**A.** The value was “only a modest decrease”.

**Q.** And the “saturation of activity with natural cofactors” value ([4]; concentrations up to 4 mM NAD(P)H)?
**A.** Its value is “could not be saturated”.

**Q.** And the Km ([4]; enzyme could not be saturated, 96 mM Tris-Cl pH 7.5, 2.5 mM GSSG)?
**A.** Its Km is greater than 1500 µM.

**Q.** What about the “reduction of catalytic efficiency for NADPH compared to Ec Gor wild type” value ([4]; vs Ec Gor wild type) of the same molecule?
**A.** The value was ~15,000 fold.

**Q.** And the “reduction of catalytic efficiency for NADPH compared to I178T single mutant” value ([4]; vs I178T single mutant)?
**A.** The value was ~9,000 fold.

B3: Gor: wild type glutathione reductase from Escherichia coli (SEQ ID NO:7) (protein, listed as Escherichia coli)
chain: B1 Glutathione reductase with T178I
**Q.** Which “growth” value (E. coli SHuffle strain; listed as wild type Ec Gor) does the source give for B3 here?
**A.** The value was “robust growth independent of NMN^+ supplementation”.

**Q.** And the “growth” value (E. coli SHuffle strain; listed as wild type Gor)?
**A.** The value was “no growth defects”.

**Q.** What about the Km [1] of the same molecule?
**A.** Its Km is greater than 1500 µM.

**Q.** And the Km [2]?
**A.** The Km was greater than 1500 µM.

**Q.** And the Km [4, 6]?
**A.** Its Km is 60 ± 10 µM.

**Q.** And the NADPH kcat [4, 6]?
**A.** Its NADPH kcat is 84 ± 7 s⁻¹.

B4: R198M-R204L: previously identified Ec Gor variant with R198M-R204L double mutations (protein, UniProt P06715 1-450, looked up, variant R198M R204L)
Glutathione reductase: B1 Glutathione reductase with T178I, R198M, R204L
**Q.** With B4 as the molecule, how does the NADPH-dependent activity [5] read?
**A.** The NADPH-dependent activity was “almost completely abolished”.

B5: G174H: Ec Gor single-mutation variant predicted to make salt bridge with the NMNH phosphate group (protein, UniProt P06715 1-450, looked up, variant G174H)
Glutathione reductase: B1 Glutathione reductase with G174H, T178I
**Q.** Which “NMNH-dependent activity (in words) compared to the wild type” value ([3]; vs wild type Ec Gor) does the source give for B5 here?
**A.** Its value is “enhanced NMNH-dependent activity”.
